In this experiment the target is CENP-A nucleosomes reconstituted on an 18 x 601 DNA array (xlCENP-A-myc/H4 tetramer with H2A/H2B dimers) (X. laevis | not stated) (UniProt Q569M3).

This is an account of results in PMC13021935.

With “Xenopus laevis M18BP1-L S760D (xlM18BP1-L^S760D-3xFLAG) (natural protein)”, the centromere localisation (immunofluorescence, FLAG) on sperm nuclei in interphase egg extract immunodepleted of endogenous CENP-C and M18BP1, relative to WT FLAG-M18BP1-L (% of WT levels) was found to be 30.
